Results from US20120149645A1, “COMPOSITIONS AND MODULATION OF MYOCYTE ENHANCER FACTOR 2 (MEF2)” (EMORY UNIVERSITY, priority 2010, published 2012).

Key:
[1] = tested on: human mtDNA fragment containing mitochondrial L-strand promoter (LSP) and ND6 gene; assay: In vitro mtDNA L-strand transcription assay; format: biochemical
Text: (§1) (A) Mitochondria-targeting MEF2D (Mt2D) and mitochondria-targeting dominant-negative MEF2D (Mt2Ddn), which lacks the transactivation domain (TAD). […] Control indicates the control vector group. (C) Effects of Mt2D or Mt2Ddn on ND6 expression in SN4741 cells. Over-expression of Mt2Ddn in SN4741 cells reduced ND6 but not PPAR-γ coactivator 1 (PGC1) expression by western blotting (n=4, **p<0.01). Control indicates the control vector group. (D) Effects of over-expression of Mt2D or Mt2Ddn on mRNA levels of mitochondria encoded genes. […] Control indicates the control vector group. (E) Effects of Mt2D or Mt2Ddn on mtDNA L-strand transcription initiation in vitro (n=3; **P<0.01). A human mtDNA fragment containing mitochondrial L-strand promoter (LSP) and ND6 gene was used in the in vitro transcription assay. […] (F) Effects of Mt2D or Mt2Ddn on mtDNA de novo transcription in vivo (n=3; **P<0.01). Control (−) is without primers. Control (+) indicates the control vector group.

ND6 = assay: In organello de novo transcription assay; format: cell-based, mouse; details: mitochondria isolated from SN4741 cells infected with lentivirus for 24 hour
Text: as §1
SN4741 cells were infected with Mt2D or Mt2Ddn lentiviruses for 24 hour. De novo transcription was measured in isolated mitochondria as described previously (46, 47). The mitochondrial fraction was suspended in transcription buffer containing 25 mM sucrose, 75 mM sorbitol, 100 mM KCl, 10 mM K2HPO4, 50 mM EDTA, 5 mM MgCl2, 1 mM ADP, 10 mM glutamate, 2.5 mM malate, and 10 mM Tris-HCl (pH7.4), with 1 mg of BSA per ml. […]

mitochondrial complex I = assay: Mitochondrial complex protein level and activity (BN-PAGE, in-gel staining, quantitative assays); format: cell-based, mouse; details: over-expression in SN4741 cells
Text: (A) Requirement of mitochondrial MEF2D for complex I activity. […] Control indicates the control vector group. (B) Over-expression of ND6 rescued complex I activity reduced by Mt2Ddn. Control indicates the control vector group. (C) Measurement of various complex activities. […] Control indicates the control vector group. (D) Effects of over-expression of Mt2D or Mt2Ddn on mitochondrial function. Mt2Ddn reduced cellular ATP level and elevated H2O2 production in SN4741 cells (n=4; *p<0.05; **P<0.01). Control indicates the control vector group.
Mitochondrial complex I activity was evaluated initially by blue native-polyacrylamide gel electrophoresis (BN-PAGE) and in-gel activity staining. This assay measures total complex I activity. Rotenone sensitive complex I activity and activities of other mitochondrial complexes were further measured by methods described by Antoni et al., J Biol Chem, 1998, 273:14210-14217. Briefly, parallel assays were performed to measure complex I activity at 340 nm using 2,3-dimethoxy-5-methyl-6-n-decyl-1,4-benzoquinone (DB) (50 μM) as acceptor and NADH (0.8 mM) as donor, in 50 mM Tris (pH 8.0) buffer supplemented with 5 mg/ml BSA either without or with the addition of 4 μM rotenone, which gave total and rotenone insensitive complex I activities, respectively. The difference in value between the two provided a quantified measure of the rotenone-sensitive activity. Mitochondrial membrane potential was detected using a kit (cat. no. 280002) from Stratagene following the procedures provided by the manufacturer. The fluorescent dye JC-1 (5,5′,6,6′-tetrachloro-1,1′,3,3′-tetraethylbenzimidazolyl carbocyanine iodide) stains mitochondria red in a membrane potential dependent manner. Briefly, cells were seeded in 96-well plates at 4×10^4 cells/well with 100 μl culture medium and incubated at 33° C. with 5% CO2. After treatment, 10 μl/well of premixed JC-1 staining solution was added, and the cells were incubated for an additional 30 min under the same conditions. After thorough washes, 100 μl assay buffer was added to each well. Fluorescence signal was detected with excitation and emission at 520 nm and 590 nm, respectively, on a multi-well plate reader (Bio-Tek). Cellular ATP and H202 were measured by Bioluminescent Somatic Cell ATP Assay Kit (Sigma) and Hydrogen Peroxide Assay Kit (Cayman), respectively.

MEF2D and ND6 proteins = assay: Western blotting of MEF2D, ND6 and PGC1 protein levels in SN4741 cells; format: cell-based, mouse; details: construct over-expressed in SN4741 cells
Text: as §1
(A) Reduced binding of MEF2D to ND6 after neurotoxin treatment. SN4741 cells were treated with MPP+ (25 μM) or rotenone (Rot, 100 nM) for 12 hours. […] Control indicates untreated. […] Control indicates untreated. (C) Immunocytochemical analysis of mitochondrial MEF2D after MPP+ and rotenone treatment. SN4741 cells treated as described in (A) were stained (scale bar, 10 μm). […] Experiments were repeated four times. Control indicates untreated. […] SN4741 cells were treated with MPP+ after infection with the control, Mt2Ddn or Mt2DVP16 or MtND6 lentiviruses for 24 hours (upper graph: different doses of MPP+ for 24 hours; lower graph: 5 μM of MPP+ for different times). Cell viability was measured by WST-1 assay (n=4; *p<0.05; **P<0.01). Control indicates the control vector group.
(A) Diagrams of Mt2DVP16 and MtND6. Mt2DVP16 was constructed by fusion of transactivation domain (TAD) of VP16 with DNA-binding domain of MEF2D and a mitochondria-targeting sequence (Mito). […] (C) Over-expression of Mt2DVP16 attenuated MEF2D siRNA-induced reduction of ND6 expression (n=3, **P<0.01).

[2] = non-denature gel electrophoresis

B1: Mt2Ddn: Mitochondria-targeting dominant-negative MEF2D: mouse MEF2D 1-131aa with mitochondria-targeting signal, lacks the transactivation domain (protein, UniProt Q63943 1-131, looked up, fragment)
chain: MGRKKIQIQRITDERNRQVTFTKRKFGLMKKAYELSVLCDCEIALIIFNHSNKLFQYASTDMDKVLLKYTEYNEPHESRTNADIIETLRKKGFNGCDSPEPDGEDSLEQSPLLEDKYRRASEELDGLFRRY
modifications: mitochondria-targeting signal added
B1 was tested, and the “level of L-strand promoter (LSP) transcripts” value [1] was “reduces”, the “de novo transcription of ND6” value (ND6) was “reduced” and the “mitochondrial complex I activity” value (mitochondrial complex I) was “significantly reduced”. For the same molecule, the “protein level of complex II-V” value (mitochondrial complex I; [2]) was “no effect”, the “protein level of mitochondrial complex I” value (mitochondrial complex I; [2]) was “markedly reduced” and the “ND6 protein level / expression” value (MEF2D and ND6 proteins) was “marked reduction”. For the same molecule, the “level of PGC1 (nuclear target of MEF2)” value (MEF2D and ND6 proteins) was “did not alter”.
